Assay: label from the status in PepcDB records

Sequence	protein production
MVWLWCVLHLLVAALGTWGLRRYALHRRLLDHPGERRSHVVATPRGGGMAIVAAILLGCVAACALWPTSRLTVCWFAAGLVAVAGVGWWDDHRPLSARLRFSIHLAASVALGALVWHGTGSVWDGVLTAAASVMLINVWNFMDGINGLASTQAALAALGFSLVAPVGWSWAGLAVAAACLGFVPFNFPRARIFMGDGGSGALGYVLAALLALNVAGGQVSWWISWLPLTAFLVDAGFTLLARMLSGQRWWEPHAQHVYQRLARRLETHVPVTGVYFAFSLIAVCLYLLIRHDPFWLQVSGALVWGMGATAIWHFLRDGLRNS	failed
MVYELVYELVYAKIYTNKRIPIREDPCMARTTRPLTHTEVQKAKATDKDLTLHDGDGLFLLVKTTGKKIWRFRYQVPGTSKRTMISLGAYPALSLADAREVRSEKLAILVKGIDPQARAGEEAEKLQIAQESIFVNVARKWFELKQSHVSADHAKDIWRSIEKDILPSIENVPIQELKARTLIQVLEPIKARGALETVRRLVQRINEIMIYAVNVGLIEANPASGIGNAFERPKKQHMPIIRPEELPKLMRTISMSNLSIPTRCLLEWQLLTLIRPAEASATAWSEIDIENKQWCIPAERMKAKRDHIVPLSEQALELLEIMRPISGNRQYVFPSRNDPRKPMNSQTANAALKRIGYSGKLVAHGLRSIASTAMNEAGFNADVIEAALAHSDKNEVRRAYNRSTYLTQRVELLGWWGEFVNRTQVI	failed
MVYLLPFFTVMIWGGNSIVNKMAASTIEPSAMSFYRWFVAMVLLTPFCLPAVIKQRHVIRPYLTKLAFLALLGMVLNQSLGYYAGLTTTASNMALITSLVPLISVFLSVPLLGKSVSMLSIVGGVISLGGLAFMLGHGDVTYFLHQDMTQGDSLMLLAALVYAAYCVLLKRWKMPFNSLTLVYMQGFFSVIMLTPLWLSSEQLLPSQEALPLIAYAGIAASIFAPLMWVKAIDLIGADSSAMFMNLMPVVSVALASTLLGEEIHVYHIIGGLMVISGVILSQIKVRKKQDLVVSESLTTTTR	failed
MVYVAVLANIAGNFPALTAALEKIEELKEEGYEIEKYYILGNIVGLFPYPREVIEAIKNLAKTSNVKVIRGKYDQLIAMSDPHAGDPKYIDKLEIPDHLKATLKYTWEKLGHEGREYLRDLPIYLVDKIGKNEIFGVYGSPVNPFDGEILPDQPTSYYEAIMRPVKEYEMLLVASPRYPLDAMTMYGRVVCPGSIGFPPAREHKATFALVDAETLKVKFIEVEYDKKIIEDRIKLEKLPEEVIKILYHGGKA	not failed
MVYVFQGIGGYIILFLLMIGEGIGLPLPSEVIMPLVGYYSYLGSISLYLGVIVGTLGSLVGSIIAYIIGYKLGLAFLKRYGKYILIDEGKIEALHNWFLRYGNMAVFGFRFIPGLRALISYPAGIGQMKILKFLGFTFLGHTIWDIVLALIGYQLANQINFVITQAEKLGNYLFILVIVIIVIYILWRIFWKRK	failed
MWDSENIEELSLVIGIGLDKPDDENLELTQQILVPKIISAKEGSSSDPTQLSITKGKTVHQMMRTSALKHKPTFSQHLRLILLSKSVIADQIGMDAIINQFVRDNGTRRSSYVFITNGRTKDIFNMNDEGEPASNVIYDLTENNKVTIRTMEPVTLGEISEHLTSDDSFLIPHVGKENGKLAINGASIIKNKLWHRDLTPIEVQNISLFSGTVEGGVIDLKRDGHLFSYEVYSSNRKIKTAYKDGKFKFTVTRNIEGRLSEDWNPNEDSFKDSYIKSIEKTVEKRVHETVTSFITEKLQKEIKADVTGLGNEVRIHYPQKWKKISRKWDDDYFSNAEIDYRVNVIVRDFGTKGANKLEHHHHHH	not failed
MWEAIKDRETGRIRSNSFANRFKSRRILSLQLSNRKDFVSPHRGSVNSLQVDLTEGRYLLSGAADGSAAVFDVQRATDYEASGLIAKHKCIFTVDKQHENGHKYAISSAIWYPIDTGLFITGSFDHYLKVWDTNTAQAVVDFKMPGKVYRTAMSSMAMSHTLIAAGTEDVQVRLCDIASGAFSHTLSGHRDGVMSVEWSTSSEWVLYTGGCDGAIRFWDIRRAGCFRVLDQSQTQLGFRPPILKRTAVGSKLSSVAKSSLGGQNRLKTLQSKQTGSQSVKGSSSAKASVEKSRQKRIHPGMLSTLDRATAHYGAVTGLKATNDGMYLLSAGSDSRIRLWDIESGRNTLVNFETGRIQTNKGIQLDTSDDPALVFVPCMKTVKVAFGMWSGRTTLMLRGHYESVNTCCFNSNDQELYTSGSDRQILVWSPGGTVEDEMVQDEVAEDKDNWSD	failed
MWGQMRNRNWRSRALCTVVATSLLALGGPLLSATAAGGPNIAVGDATAASSSHGEYGAANITDGNQGTYWQSGGGSLPQWVQTDLGATERIDEVVLRLPAGWESRDQTLSVQGSADGTGFSTLKTSATYAFDPGSGNTVTIAFPATQTRFVRVDITANTGWQAAQLSELEVHAAGESSVNLAAGRRLTASSSTGAYTPGNGNDGNKATYWESANNALPQWLQADLGSARRVNRVVLRLPDGWPARSQTLKIQASDNGSDFTDLTAAKAYTFDAAGGQSATVTFDAATARYVRVLVTANTGQPAAQISELEVYGPETGDTQAPTTPANLAFTEPATGQIRLTWNESSDDTAVTGYDVYANGDLLTSVAGDVTTYTDTRPAGTTVTYHVRAKDAAGNQSGDSNSVTRRADTGDTQAPTAPSNLALTEPVPGQVKLTWTASTDDRGVTGYDVYADNKLRKSVAGNVTTYTDTQPASANVTYFVRAKDAAGNESGDSNSVFRGGTMDGSNLAVGKPITASSHIHTYVAENANDNSTSTYWEGAAGGYPNTLTLKLGANADVDSVVLKLNPDAGWSRRTQHIEVLGRAQDASGLTSLVAARDYVFDPASGGNSVTIPVGERAADVQLKFTSNTGATAGQVAEFQVIGTPAPNPDLEVTGLTASPGSPVESDEITVSATVRNSGAADAPAGKVAVRLGDTKVATADVPALEAGAQRTVSASLGAREAGSYELSAVADEANEIIEQNETNNTYTRPDPLVVKPVQSSDLVAAAVTTSPSSPAAGDDVTFRVALRNQGTQDSAGGGHPVTLALVDSKGDTVKTLTGTHSGVIAAGSTAPAVSLGTWKAANGSYSLKVTVADDANELPVKRENNTSTQPLFVGRGANMPYDMYEAEDGTVGGGATVVGPNRTIGDIAGEASGRKAVHLDRTGEYVEFTTKADTNTLVTRFSIPDAPGGGGIDATLDVYVDGVMKKALPLTSKYAWLYGAEASPGNSPGAGAPRHIYDEAHIMLGETVPAGSTIRLQKDAANTSDYAIDFVNLEQVSATANPDPAAYAVPAGFTHQDVQNALDKVRMDTSGKLVGVYLPPGDYQTSSKFQVYGKAVKVVGAGPWFTKFHAPTTQDNTDIGFRAEASAKGSTFANFAYFGNYTSRIDGPGKVFDFSNTSDIVIDNIWNEHMVCLYWGANTDRMTIRNSRIRNMFADGINMTNGSTDNLVSNNDARATGDDSFALFSAIDAGGADMKNNLYENLTTTLTWRAAGLAVYGGYNNTFRNIHIADTLVYSGITISSLDFGYPMNGFGTDPTTFENVSIVRAGGHFWGGQTFPGIWVFSASKVFQGIRVNNVDIVDPTYSGIMFQTNYVGGQPQFPIKDTVFTDVSVTGAHKSGDEFDAKSGFGLWANEMPESGQGPAVGEVTFNGLALGDNAVDIRNTTSTFKIIRNP	failed
MWGYVHLISWVAIVVLTVTALLIYSKSVKGFTMLQMINRVFYILVILSGIMMVQYSVKESWILAIFKILMGIIVIGVVEMLLSYRKQQKPTGMFLMIFIIVVVITVSLGFYLSGGYPLFN	failed
MWIQVRTIDGSKTCTIEDVSRKATIEELRERVWALFDVRPECQRLFYRGKQLENGYTLFDYDVGLNDIIQLLVRPD	not failed
MWKDLTEPLPEACAEGLEIRVVKSPEELADYAAVLSANWNPPAETVQRFYTEAAEYALRKNSPALYLVGYAGNRAVCSAEAFIHASVVGIYNISTLEHKRRRGYGGAITLATLHTARNAGCDTAVLQASEDGEPVYRKLGFTDCGRFTEYSL	failed
MWKRASRRAGLRRRAVAQPVPPAELGGTAFSSVLEQLELECRAMVSYALKQGLAMSPDLPGRLAELRVMPGASLHGESGARELAGLHRQLVRAIQPATPQAVVLIERERLRGGWLRWLGPIPLIRTLTLTSVGCLASVVGLAMSSLVNERNITLGFLDSSGSTLGWNVMFILACAGLGAAFSALFQAHRYVADATYDPRFDSSYAARMILGLIAG	failed
MWKRGKISTQLDDDEFRAGMRKAQVIDVREKKEFDAGHILGARNIPYSQMKNRTQELRSDLPVYLYDQGRTFSGRAAMLLSKKGFTQLYILKNGYQRWTGKTKKTKYLEHHHHHH	not failed
MWMKDPVARPLSPTRLQPALPPEAQSVPELEEVARVLAEIPRPLKRRGSMEQAPAVALPPTHKKQYQQIISRLFHRHGGPGPGGRSQSCPPSLRDLRPGQGPLLLPHQLPFHRPAPSQSSPPEQPQSMEMRSVLRKAGSPRKARRARLNPLVLLLDAALTGELEVVQQAVKEMNDPSQPNEEGITALHNAICGANYSIVDFLITAGANVNSPDSHGWTPLHCAASCNDTVICMALVQHGAAIFATTLSDGATAFEKCDPYREGYADCATYLADVEQSMGLMNSGAVYALWDYSAEFGDELSFREGESVTVLRRDGPEETDWWWAALHGQEGYVPRNYFGLFPRVKPQRSKV	not failed
MWNIATAAATLLVAFAATRAYAADIGYLAPPGVAANEFPSPQRPVARIVSPRRASEEHRDALNEAGQIARVLELKPGMTVGDIGAGSGYHTVRLSYLVAPAGSVVAQDVTRDYLIELARRTKLLKLTNVQFALGEPHDPRLPASSLDAAILVHMYHEIAQPYAFLYNLAPALKQGARVGIVDLELPTSKHGTPIELLRCELTAVGYREVATYKLEGDGGYLAVFSPPEVAGRKSPRDIVACRDPAGTR	failed
MWNKLNKSMMFCQMMFGLSFYGVMVILTRFFLEELNYSEADTMMVVGAFSSIGPLFAIAGGFIADKFLGAYRSLTISYFGFATGYALLVLGSYTTNVPMALCGIALASYGRGLMSPSYPSLYKRTFDTQEHFENCYPVNYSVNNVGALLGQYLFPMFVLVLGFHGSFLLSCVLALLAFATLVIFRKPLLTVGAHIDQKPVSMQNWISFLITSVAMIALVFFMFSNMDIGQNIVYGIGLAAIGYFVILMLKSKKSDALKMGTILIMTALTTAFFVYYGQMMTSMTMVTINTMRGDLFDLIPIAPEASMAMNPLWCIVAGPVIAMIFSALEKRDIHFSTATKIGFAFILTAIAFGILTMAVMGVGEDAIIRPEVFLLIHFFQAFAEVIVGSLVVAFILSVAPKHIEGFSVSLFSVAMALSGIIGAVFSTSIAQEKGHVITQEFVQTVYGSYFQLLTVLAVVMVAIAFIASFIIRKMLESSKQAEEVELKEQKA	failed
MWNLETDRVIKEIEKSNGKNIVFHAPEGLKLAVEKEIEKINDYFNSTKNLIMWGAPCYGACDLCDHELKYNNIDLIIHYGHEELPYAKPDIPTIFIHCYYIYDEIEQNNILNKIDEYLQNNPNTIITTTIQFKELLKKYNPNIILGCRANISNKPKSELEQGTEKETENSKILYIGTGRFHPLMLCYKFKKSVNLFNPTSKEFSAISEEEVNKFIKKRIGAISKLLINPPKKIGVVLSTKKGQNRINVYNKIINLLKDNNIEYMPIILNNASPDNLFYDVSAYIICACPRIVLDDYLNYNKTLLTPKEFEMYIKKDFEYVFDEILFDDFEP	failed
MWPLISNELYKIIKKKKFWITFIVFFALFLAYSIVQYSSEKKYYEPKQRIAMDKLEIKTEKKQLNSPGINAEQKKKIKQYIKQDEKDIKDKKKEDASKDLDWHLRLNKELIQKKYEYIKDKGKGKNEDTEDASISVMKDEYYRDNNLNPYDKTGDLAMDSFLSSKAFMQILVVFIIIAVATSDIVSSEYSPATIKMLLAKPASRAKILFSKFIAILVGNIFIIGIPQVITYLILSFMNGFPNLSQPIAVGRMYQYDSSVILSNHNVGVSPILGSSYLITEGKYLLYLALLDLLFILGCVSICFLISVLIKNSAITIGINVGLGVVMSIIGLMTLEGAIPKALSAITPFLIMTYSSTDVLLMGDMAKRANNPGITVGMGIVVFIVYTVVCMGISTFVFSKKDMLA	failed

Source: a protein production outcome set (Wang et al. 2014)
